US20060258842A1 (IQ THERAPEUTICS, published 2006)

B1: human monoclonal antibody IQNPA-1 (antibody, V domains shown)
VH: QVQLVQSGAEVKKPGASVKVSCKASGYTFTSNAIQWVRQAPGQRLEWVGWINGGDGNTKYSQKFQGRVTISRDISASTAYMELSSLRSEDTAVYYCARHRLQRGGFDPWGQGTLVTVSS
VL: EIVLTQSPGTLSLSPGERATLSCRASQSVSYSSLAWYQQKPGQAPSLLIYGASSRATGIPDRFSGSGSGPDFTLTISRLEPEDFAVYYCQHYGNSPYTFGQGTKLEIKR
B2: human monoclonal antibody IQNPA-2 (antibody, V domains shown)
VH: B1 VH
VL: B1 VL

Legend:
[1] = target: Bacillus anthracis Protective Antigen (Bacillus anthracis, UniProt P13423 30-764); assay: SPR (BIAcore 3000), PA amine-coupled to CM5 chip, antibody as analyte
Chain of Bacillus anthracis Protective Antigen (P13423 30-764 limits assumed): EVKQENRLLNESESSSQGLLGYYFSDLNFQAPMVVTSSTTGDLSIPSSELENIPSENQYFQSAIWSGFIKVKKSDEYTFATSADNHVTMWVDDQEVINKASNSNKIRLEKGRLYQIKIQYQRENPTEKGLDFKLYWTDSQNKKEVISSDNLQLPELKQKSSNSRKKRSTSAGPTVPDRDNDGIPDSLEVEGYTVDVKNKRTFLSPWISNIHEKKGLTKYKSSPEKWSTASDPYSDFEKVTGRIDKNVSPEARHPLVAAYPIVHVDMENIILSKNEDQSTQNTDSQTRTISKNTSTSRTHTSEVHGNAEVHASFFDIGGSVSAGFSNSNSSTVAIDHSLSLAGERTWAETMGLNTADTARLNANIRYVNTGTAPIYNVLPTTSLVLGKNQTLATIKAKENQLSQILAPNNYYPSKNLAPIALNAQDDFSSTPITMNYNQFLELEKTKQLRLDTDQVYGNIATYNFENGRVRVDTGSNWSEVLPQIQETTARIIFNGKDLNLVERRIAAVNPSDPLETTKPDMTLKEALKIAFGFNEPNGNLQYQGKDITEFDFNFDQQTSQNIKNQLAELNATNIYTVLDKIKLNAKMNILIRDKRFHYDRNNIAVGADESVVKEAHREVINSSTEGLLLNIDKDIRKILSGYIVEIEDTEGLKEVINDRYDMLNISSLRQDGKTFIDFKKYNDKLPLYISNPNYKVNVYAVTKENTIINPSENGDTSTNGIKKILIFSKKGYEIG

[2] = target: T1, GST fusion of protective antigen domains 1 to 4 (Bacillus anthracis, UniProt P13423 30-764); assay: ELISA, plate coated with GST-PA domain protein, goat anti-human IgG HRP
T1 construct: domain: 1 to 4
T1 sequence (P13423 30-764 limits assumed): as above

[3] = target: T2, GST fusion of protective antigen domain 1 (Bacillus anthracis, UniProt P13423 30-287); assay: as above
T2 construct: domain: 1
T2 sequence (P13423 30-287 limits assumed): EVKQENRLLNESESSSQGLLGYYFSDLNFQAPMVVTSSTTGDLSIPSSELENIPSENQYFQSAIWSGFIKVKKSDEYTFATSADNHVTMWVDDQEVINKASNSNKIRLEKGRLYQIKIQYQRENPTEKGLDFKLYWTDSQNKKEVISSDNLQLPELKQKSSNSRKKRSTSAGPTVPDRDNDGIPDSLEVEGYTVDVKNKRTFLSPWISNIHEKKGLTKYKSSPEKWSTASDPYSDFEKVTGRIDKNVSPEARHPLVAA

[4] = target: T3, GST fusion of protective antigen domains 3 to 4 (Bacillus anthracis, UniProt P13423 517-764); assay: as above
T3 construct: domain: 3 to 4
T3 sequence (P13423 517-764 limits assumed): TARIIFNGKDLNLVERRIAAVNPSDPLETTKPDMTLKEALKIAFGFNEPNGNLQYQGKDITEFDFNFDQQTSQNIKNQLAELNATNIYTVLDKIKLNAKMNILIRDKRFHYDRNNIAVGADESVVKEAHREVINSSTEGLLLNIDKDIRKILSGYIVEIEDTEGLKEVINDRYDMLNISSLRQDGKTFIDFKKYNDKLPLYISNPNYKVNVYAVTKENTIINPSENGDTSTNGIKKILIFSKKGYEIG

[5] = target: T4, GST fusion of protective antigen domains 1 to 2 (Bacillus anthracis, UniProt P13423 30-516); assay: as above
T4 construct: domain: 1 to 2
T4 sequence (P13423 30-516 limits assumed): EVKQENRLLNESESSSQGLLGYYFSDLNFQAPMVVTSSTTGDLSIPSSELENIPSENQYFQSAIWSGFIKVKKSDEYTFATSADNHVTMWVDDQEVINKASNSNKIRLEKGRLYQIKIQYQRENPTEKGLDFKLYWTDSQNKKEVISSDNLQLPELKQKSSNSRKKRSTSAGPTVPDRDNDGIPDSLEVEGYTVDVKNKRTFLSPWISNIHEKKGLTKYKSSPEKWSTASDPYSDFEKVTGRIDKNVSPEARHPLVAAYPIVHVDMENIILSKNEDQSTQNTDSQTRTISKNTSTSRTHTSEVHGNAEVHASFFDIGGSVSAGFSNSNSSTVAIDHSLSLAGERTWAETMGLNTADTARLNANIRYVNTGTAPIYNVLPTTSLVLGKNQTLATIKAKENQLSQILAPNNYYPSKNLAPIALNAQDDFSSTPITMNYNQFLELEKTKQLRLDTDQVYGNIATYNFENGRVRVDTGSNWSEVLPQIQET

[6] = target: T5, GST fusion of protective antigen domain 4 (Bacillus anthracis, UniProt P13423 625-764); assay: as above
T5 construct: domain: 4
T5 sequence (P13423 625-764 limits assumed): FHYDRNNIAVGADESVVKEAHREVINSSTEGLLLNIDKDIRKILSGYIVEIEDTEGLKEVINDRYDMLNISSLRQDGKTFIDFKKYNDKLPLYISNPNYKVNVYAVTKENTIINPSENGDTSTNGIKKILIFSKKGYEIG

[7] = target: T6, GST fusion of protective antigen domains 1 to 3 (Bacillus anthracis, UniProt P13423 30-624); assay: as above
T6 construct: domain: 1 to 3
T6 sequence (P13423 30-624 limits assumed): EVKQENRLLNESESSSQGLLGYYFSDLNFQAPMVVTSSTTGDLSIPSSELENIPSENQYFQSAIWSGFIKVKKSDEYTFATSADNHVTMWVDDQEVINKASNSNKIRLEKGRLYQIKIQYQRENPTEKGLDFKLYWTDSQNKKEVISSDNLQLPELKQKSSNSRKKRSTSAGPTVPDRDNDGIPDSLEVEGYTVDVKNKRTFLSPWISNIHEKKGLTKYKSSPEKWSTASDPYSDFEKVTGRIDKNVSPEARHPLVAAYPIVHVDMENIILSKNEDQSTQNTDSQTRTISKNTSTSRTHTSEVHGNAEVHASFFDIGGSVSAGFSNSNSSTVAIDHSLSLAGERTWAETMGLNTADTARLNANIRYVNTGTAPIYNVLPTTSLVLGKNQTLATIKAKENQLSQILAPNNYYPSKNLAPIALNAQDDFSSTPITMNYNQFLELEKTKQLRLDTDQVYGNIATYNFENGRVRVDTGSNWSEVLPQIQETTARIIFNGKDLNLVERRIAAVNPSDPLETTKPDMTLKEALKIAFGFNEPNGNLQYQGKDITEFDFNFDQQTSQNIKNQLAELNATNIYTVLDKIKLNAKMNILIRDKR

Row | Binder | Ka [1] [M⁻¹] | Kd [1] [nM] | koff [1] [s⁻¹] | kon [1] [M⁻¹ s⁻¹] | End point titre [2] | End point titre [3] | End point titre [4] | End point titre [5] | End point titre [6] | End point titre [7]
1 | B1 | 8.31e+09 | 0.12 | 1.93e-05 | 160000 | 256000 | < 100 | 256000 | < 100 | 256000 | < 100
2 | B2 | 9.86e+09 | 0.101 | 1.81e-05 | 178000 | 128000 | < 100 | 256000 | < 100 | 128000 | < 100
